Test results taken from US20100297712A1.
Each block holds one molecule with its values, some of them ahead of it.

Assays:
[1] = biological target: vitamin D3 hydroxylase (VDH) of Pseudonocardia autotrophica NBRC12743 strain (Pseudonocardia autotrophica) (UniProt C4B644); test: cell-based or functional assay
[2] = biological target: T1, ferredoxin (ThcC) derived from Rhodococcus erythropolis strain NI86/21, P43493
T1 chain: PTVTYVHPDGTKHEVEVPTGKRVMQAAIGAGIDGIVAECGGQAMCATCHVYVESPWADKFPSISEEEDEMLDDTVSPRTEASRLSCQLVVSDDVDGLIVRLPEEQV

[3] = biological target: T2, vitamin D3 hydroxylase (VDH) of Pseudonocardia autotrophica NBRC12743 strain
T2 chain: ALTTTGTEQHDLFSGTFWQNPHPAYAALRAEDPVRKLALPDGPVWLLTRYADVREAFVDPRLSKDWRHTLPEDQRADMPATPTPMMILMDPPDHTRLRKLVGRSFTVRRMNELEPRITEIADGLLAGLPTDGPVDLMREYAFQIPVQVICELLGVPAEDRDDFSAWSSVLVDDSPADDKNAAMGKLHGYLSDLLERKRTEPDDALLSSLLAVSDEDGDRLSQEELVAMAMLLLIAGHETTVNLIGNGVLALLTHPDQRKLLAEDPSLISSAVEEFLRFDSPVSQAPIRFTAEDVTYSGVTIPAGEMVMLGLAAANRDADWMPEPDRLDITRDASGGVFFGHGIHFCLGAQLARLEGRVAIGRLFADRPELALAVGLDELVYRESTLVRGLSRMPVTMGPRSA

relative activity per expressed VDH, against the transformant expressing VDH solely [1]: 6 fold
Molecule: ferredoxin (ThcC) derived from Rhodococcus erythropolis strain NI86/21 (from UniProt P43493 2-107)

B1: vitamin D3 hydroxylase (VDH) of Pseudonocardia autotrophica NBRC12743 strain (protein)
chain: T2 chain
Activity (mmol/min/mol of VDH), VD3 conversion by Rhodococcus erythropolis transformant pTipQT-VDH-thcCD (mmol/min/mol of VDH) [2]: 119

B2: ferredoxin reductase (ThcD) derived from Rhodococcus erythropolis strain NI86/21 (protein)
chain: SIVIIGSGQAGFEAAVSLRSHGFSGTITLVGDEPGVPYQRPPLSKAYLHSDPDRESLALRPAQYFDDHRITLTCGKPVVRIDRDAQRVELIDATAIEYDHLILATGARNRLLPVPGANLPGVHYLRTAGEAESLTSSMASCSSLVVIGAGFIGLEVAAAARKKGLDVTVVEAMDRPMARALSSVMSGYFSTAHTEHGVHMRLSTGVKTINAADGRAAGVTTNSGDVIHADAVVVGIGVVPNIELAALTGLPVDNGIVVDEYLRTPDENISAIGDCAAYPIPGKAGLVRLESVQNAVDQARCLAAQLTGTSTHYRSVPWFWSEQYESKLQMAGLTAGADTHVVRGSVDSGVFSIFCFLGTRLLGVESVNKPRDHMAARKILATEMPLTPEQAADTDFDLKLAIARHKDTHKDEVASADIGERQVVAS
Activity (mmol/min/mol of VDH), VD3 conversion by Rhodococcus erythropolis transformant pTipQT-VDH-thcCD (mmol/min/mol of VDH) [3]: 119
relative activity per expressed VDH, against the transformant expressing VDH solely [3]: 6 fold
